# Test results as given in patent publication US20200179497.
# Target: IVIg (Octagam)
protein,measurement,value
pCART124 (IdeS with additional N terminal methionine and histidine tag) (protein) MDSFSANQEIRYSEVTPYHVTSVWTKGVTPPANFTQGEDVFHAPYVANQGWYDITKTFNGKDDLLCGAATAGNMLHWWFDQNKDQIKRYLEEHPEKQKINFNGEQMFDVKEAIDTKNHQLDSKLFEYFKEKAFPYLSTKHLGVFPDHVIDMFINGYRLSLTNHGPTPVKEGSKDPRGGIFDAVFTRGDQSKLLTSRHDFKEKNLKEISDLIKKELTEGKALGLSHTYANVRINHVINLWGADFDSNGNLKAIYVTDSDSNASIGMKKYFVGVNSAGKVAISAKEIKEDNIGAQVLGLFTLSTGQDSWNQTNGGGHHHHHH,enzyme concentration at which cleavage starts on SDS-PAGE,"IdeS, which starts the cleavage at 0.9 ng/ml (lane 6) and has a dominating scIgG band at 1.9 ng/ml (lane 5)"
pCART203 (protein) MDDYQRNATEAYAKEVPHQITSVWTKGVTPPEQFTQGEDVIHAPYLAHQGWYDITKAFDGKDNLLCGAATAGNMLHWWFDQNKTEIEAYLSKHPEKQKIIFNNQELFDLKAAIDTKDSQTNSQLFNYFRDKAFPNLSARQLGVMPDLVLDMFINGYYLNVFKTQSTDVNRPYQDKDKRGGIFDAVFTRGDQTTLLTARHDLKNKGLNDISTIIKQELTEGRALALSHTYANVSISHVINLWGADFNAEGNLEAIYVTDSDANASIGMKKYFVGINAHGHVAISAKKIEGENIGAQVLGLFTLSSGKDIWQKLSGGGHHHHHH,"cleavage efficacy on SDS-PAGE, fold vs IdeS",a 2 fold increased efficacy compared to IdeS
same,enzyme concentration at which IgG cleavage is seen on SDS-PAGE,demonstrates IgG cleavage at 0.5 ng/ml (lane 7)
pCART208 (protein) MDDYQRNATEAYAKEVPHQITSVWTKGVTPPEQFTQGEDVIHAPYLAHQGWYDITKAFDGKDNLLCGAATAGNMLHWWFDQNKTEIEAYLSKHPEKQKIIIRNQELFDLKAAIDTKDSQTNSQLFNYFRDKAFPNLSARQLGVMPDLVLDMFINGYYLNVFKTQSTDVNRPYQDKDKRGGIFDAVFTRGDQTTLLTARHDLKNKGLNDISTIIKQELTEGRALALSHTYANVSISHVINLWGADFNAEGNLEAIYVTDSDANASIGMKKYFVGINAHGHVAISAKKIEGENIGAQVLGLFTLSSGKDIWQKLSGGGHHHHHH,"cleavage efficacy of the 1st heavy chain on SDS-PAGE, fold vs IdeS",approximately a 4 fold increase in cleavage efficacy of the 1st heavy chain
"BX1001865 (IdeS lacking tag, produced to GMP standard) (protein) DSFSANQEIRYSEVTPYHVTSVWTKGVTPPANFTQGEDVFHAPYVANQGWYDITKTFNGKDDLLCGAATAGNMLHWWFDQNKDQIKRYLEEHPEKQKINFNGEQMFDVKEAIDTKNHQLDSKLFEYFKEKAFPYLSTKHLGVFPDHVIDMFINGYRLSLTNHGPTPVKEGSKDPRGGIFDAVFTRGDQSKLLTSRHDFKEKNLKEISDLIKKELTEGKALGLSHTYANVRINHVINLWGADFDSNGNLKAIYVTDSDSNASIGMKKYFVGVNSAGKVAISAKEIKEDNIGAQVLGLFTLSTGQDSWNQTN",enzyme concentration at which cleavage starts on SDS-PAGE,"IdeS, which starts the cleavage at 0.9 ng/ml (lane 6) and has a dominating scIgG band at 1.9 ng/ml (lane 5)"
